Article PMC4239663, “Structural basis for extracellular cis and trans RPTPσ signal competition in synaptogenesis” (Nature Communications, 2014)
Numbering of substitutions follows the chain as printed. Names and notes keep the numbering of the source. Values joined by “and” are separate entries in the source; they are usually repeats but may differ in a detail not shown here. Equal entries are not always repeated.

What was measured:
[1] = target: human RPTPσ Ig1–3 R227A+R228A (R228A+R229A in human numbering), C-terminal Avitag (human); assay: SPR; equilibrium; biotinylated human RPTPσ Ig1–3 (wild type or mutants) immobilized on streptavidin-coated CM5 chips, mouse TrkC LRRIg1 as analyte; 10 mM HEPES pH 7.5, 150 mM NaCl, 0.01% Tween 20, 25 °C
[2] = target: human RPTPσ Ig1–3 WT, C-terminal Avitag, immobilized (human); assay: as above
[3] = target: human RPTPσ Ig1–3 (human)
[4] = target: T1, mouse TrkC LRRIg1, C-terminal Avitag, immobilized (mouse, UniProt Q6VNS1 32-302, biotin on the Avitag (enzymatic)); assay: SPR
T1 chain: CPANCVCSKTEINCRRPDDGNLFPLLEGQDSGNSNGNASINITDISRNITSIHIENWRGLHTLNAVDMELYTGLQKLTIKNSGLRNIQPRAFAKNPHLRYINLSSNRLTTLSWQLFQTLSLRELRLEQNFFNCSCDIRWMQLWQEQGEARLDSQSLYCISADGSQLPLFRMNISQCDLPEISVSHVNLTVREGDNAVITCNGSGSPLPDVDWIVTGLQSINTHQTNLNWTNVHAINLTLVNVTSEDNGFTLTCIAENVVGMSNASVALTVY

mouse NGL-3 Ecto = target: T2, mouse NGL-3 Ecto (mouse, UniProt P0C192 39-574, biotin on the Avitag (enzymatic)); assay: SPR
T2 chain: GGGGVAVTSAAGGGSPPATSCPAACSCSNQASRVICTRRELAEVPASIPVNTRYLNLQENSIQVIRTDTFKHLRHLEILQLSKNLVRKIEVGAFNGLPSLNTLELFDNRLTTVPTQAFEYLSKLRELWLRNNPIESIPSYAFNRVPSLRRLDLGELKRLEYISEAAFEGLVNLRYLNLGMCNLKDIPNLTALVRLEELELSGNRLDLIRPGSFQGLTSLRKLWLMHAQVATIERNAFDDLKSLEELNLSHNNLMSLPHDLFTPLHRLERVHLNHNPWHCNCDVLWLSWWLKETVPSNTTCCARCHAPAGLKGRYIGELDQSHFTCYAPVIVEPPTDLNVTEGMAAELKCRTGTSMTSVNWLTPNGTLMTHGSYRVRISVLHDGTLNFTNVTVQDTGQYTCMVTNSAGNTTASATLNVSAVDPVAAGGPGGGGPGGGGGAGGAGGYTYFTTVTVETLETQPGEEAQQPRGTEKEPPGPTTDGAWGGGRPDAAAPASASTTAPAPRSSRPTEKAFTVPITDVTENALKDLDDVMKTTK

[5] = target: mouse TrkC LRRIg1, C-terminal Avitag, immobilized (mouse) (UniProt Q6VNS1); assay: SPR; equilibrium; biotinylated mouse TrkC LRRIg1 (wild type or D240A+D242A) immobilized on streptavidin-coated CM5 chips, human RPTP proteins as analytes; 10 mM HEPES pH 7.5, 150 mM NaCl, 0.01% Tween 20, 25 °C; in Fig. 6a also with increasing HS or heparin-dp10
mouse TrkC LRRIg1 2Q = target: T3, mouse TrkC LRRIg1 2Q (Mus musculus); assay: SPR
T3 chain: T1 chain with N37Q, N41Q

[6] = target: chicken TrkC LRRIg1 2N, C-terminal Avitag, immobilized (chicken, UniProt Q91044 32-302, N163Q | N232Q | N259Q | N267Q | N294Q, biotin on the Avitag (enzymatic)); assay: SPR
[7] = target: T4, mouse TrkC LRRIg1 (soluble) (mouse, UniProt Q6VNS1 32-302); assay: SPR
T4 chain: T1 chain

chicken RPTPσ Ig1–3 = chicken RPTPσ Ig1–3 (chicken, UniProt F1NWE3 29-316); assay: SPR; equilibrium; biotinylated chicken TrkC LRRIg1 variants immobilized on streptavidin-coated CM5 chips, chicken RPTPσ Ig1–3 as analyte; 10 mM HEPES pH 7.5, 150 mM NaCl, 0.01% Tween 20, 25 °C; 1 M MgCl2 regeneration for LRRIg1 2Q; conditions: both partners purified

## mouse TrkC LRRIg1 (soluble) (from UniProt Q6VNS1 32-302) (domain or fragment)
[1]
  Kd: 7000 nM
[2]
  Kd: 1800 nM

## mouse TrkC LRRIg1, C-terminal Avitag, immobilized (from UniProt Q6VNS1 32-302) (domain or fragment)
[3]
  induced presynaptic differentiation in rat hippocampal neurons co-cultured with COS-7 cells expressing mouse TrkC TM, with heparin-dp10 (30 μg/ml, ~10 μM) against mock: 2 fold

B1: human RPTPσ Ecto (domain or fragment)
chain: EEPPRFIKEPKDQIGVSGGVASFVCQATGDPKPRVTWNKKGKKVNSQRFETIEFDESAGAVLRIQPLRTPRDENVYECVAQNSVGEITVHAKLTVLREDQLPSGFPNIDMGPQLKVVERTRTATMLCAASGNPDPEITWFKDFLPVDPSASNGRIKQLRSGALQIESSEETDQGKYECVATNSAGVRYSSPANLYVRVRRVAPRFSILPMSHEIMPGGNVNITCVAVGSPMPYVKWMQGAEDLTPEDDMPVGRNVLELTDVKDSANYTCVAMSSLGVIEAVAQITVKSLPKAPGTPMVTENTATSITITWDSGNPDPVSYYVIEYKSKSQDGPYQIKEDITTTRYSIGGLSPNSEYEIWVSAVNSIGQGPPSESVVTRTGEQAPASAPRNVQARMLSATTMIVQWEEPVEPNGLIRGYRVYYTMEPEHPVGNWQKHNVDDSLLTTVGSLLEDETYTVRVLAFTSVGDGPLSDPIQVKTQQGVPGQPMNLRAEARSETSITLSWSPPRQESIIKYELLFREGDHGREVGRTFDPTTSYVVEDLKPNTEYAFRLAARSPQGLGAFTPVVRQRTLQSISPKNFKVKMIMKTSVLLSWEFPDNYNSPTPYKIQYNGLTLDVDGRTTKKLITHLKPHTFYNFVLTNRGSSLGGLQQTVTAWTAFNLLNGKPSVAPKPDADGFIMVYLPDGQSPVPVQSYFIVMVPLRKSRGGQFLTPLGSPEDMDLEELIQDISRLQRRSLRHSRQLEVPRPYIAARFSVLPPTFHPGDQKQYGGFDNRGLEPGHRYVLFVLAVLQKSEPTFAASPFSDPFQLDNPDPQPIVDGEEG
[4]
  Kd: 1500 nM
Mouse NGL-3 Ecto
  Kd: > 7300 nM
[5]
  Kd: 516 nM

B2: human RPTPσ Ig1–3 (domain or fragment)
chain: EEPPRFIKEPKDQIGVSGGVASFVCQATGDPKPRVTWNKKGKKVNSQRFETIEFDESAGAVLRIQPLRTPRDENVYECVAQNSVGEITVHAKLTVLREDQLPSGFPNIDMGPQLKVVERTRTATMLCAASGNPDPEITWFKDFLPVDPSASNGRIKQLRSGALQIESSEETDQGKYECVATNSAGVRYSSPANLYVRVRRVAPRFSILPMSHEIMPGGNVNITCVAVGSPMPYVKWMQGAEDLTPEDDMPVGRNVLELTDVKDSANYTCVAMSSLGVIEAVAQITVKSLPKA
Mouse TrkC LRRIg1 2Q
  Kd: 140 nM
[5]
  Kd: 258 nM

B3: chicken RPTPσ Ig1-3 ΔK (protein)
chain: ESPPVFIKKPVDQIGVSGGVASFVCQATGDPKPRVTWNAAGAAVNSQRFETIEFDESAGAVLRIQPLRTPRDENIYECVAQNPHGEVTVHAKLTVLREDQLPPGFPNIDMGPQLKVVERTRTATMLCAASGNPDPEITWFKDFLPVDPSTSNGRIKQLRSGGLQIESSEETDQGKYECVASNSAGVRYSSPANLYVRVRRVAPRFSILPVSHEIMPGGNVNITCVAVGSPMPYVKWMQGAEDLTPEDDMPVGRNVLELTDVKDSANYTCVAMSSLGVIEAVAQITVKS
[6]
  Kd: 2600 nM

B4: human RPTPσ Ig1–3 ΔK (K68A+K69A+K71A+K72A) (domain or fragment)
chain: B2 chain with K39A, K40A, K42A, K43A
[7]
  Kd: 2800 nM

B5: human RPTPσ Ig1–3 WT, C-terminal Avitag, immobilized (domain or fragment)
chain: B2 chain
modifications: biotin on the Avitag (enzymatic)
[7]
  Kd: 580 nM and 551 nM

B6: RPTPσ with the meB mini-exon inserted between R225 and V226 (domain or fragment)
chain: EEPPRFIKEPKDQIGVSGGVASFVCQATGDPKPRVTWNKKGKKVNSQRFETIEFDESAGAVLRIQPLRTPRDENVYECVAQNSVGEITVHAKLTVLREDQLPSGFPNIDMGPQLKVVERTRTATMLCAASGNPDPEITWFKDFLPVDPSASNGRIKQLRSGALQIESSEETDQGKYECVATNSAGVRYSSPANLYVRELREVRRVAPRFSILPMSHEIMPGGNVNITCVAVGSPMPYVKWMQGAEDLTPEDDMPVGRNVLELTDVKDSANYTCVAMSSLGVIEAVAQITVKSLPKA
[7]
  Kd: 4800 nM

B7: chicken RPTPσ Ig1–3, C-terminal Avitag, immobilized (domain or fragment)
chain: ESPPVFIKKPVDQIGVSGGVASFVCQATGDPKPRVTWNKKGKKVNSQRFETIEFDESAGAVLRIQPLRTPRDENIYECVAQNPHGEVTVHAKLTVLREDQLPPGFPNIDMGPQLKVVERTRTATMLCAASGNPDPEITWFKDFLPVDPSTSNGRIKQLRSGGLQIESSEETDQGKYECVASNSAGVRYSSPANLYVRELREVRRVAPRFSILPVSHEIMPGGNVNITCVAVGSPMPYVKWMQGAEDLTPEDDMPVGRNVLELTDVKDSANYTCVAMSSLGVIEAVAQI
modifications: biotin on the Avitag (enzymatic)
[6]
  Kd: 2500 nM

B8: chicken TrkC LRRIg1cryst, C-terminal Avitag, immobilized (domain or fragment, UniProt Q91044 32-302, looked up)
chain: CPANCLCSKTDINCKKPDDGNLFPLLEGQDSRNITSIHIENWKNLQTLNAVDMELYTGLQRLTIRNSGLRNIQPRAFAKNPHLRYIDLSGNRLTTLSWQLFQTLRLFDLRLERNPFQCSCDIRWIQLWQEKGEANLQSQQLHCMNLDTAVILLRNMNITQCDLPEISVSHVNLTVREGENAVITCQGSGSPLPDVDWTVADLHSINTHQTNLQWTNVHAIQLTLVNVTSEDNGFLLTCIAENVVGMSQASVLLTVY
modifications: biotin on the Avitag (enzymatic)
notes: chicken TrkC LRRIg1, amino acids 32–302 of NCBI NM_205169.1, lacking residues 63–77; not shown: Avitag (BirA recognition site), C-terminal, kept
Chicken RPTPσ Ig1–3
  Kd: 4800 nM

B9: chicken TrkC LRRIg1 2N, C-terminal Avitag, immobilized (domain or fragment, UniProt Q91044 32-302, looked up)
chain: CPANCLCSKTDINCKKPDDGNLFPLLEGQDSGSSNGNTSINITDISRNITSIHIENWKNLQTLNAVDMELYTGLQRLTIRNSGLRNIQPRAFAKNPHLRYIDLSGNRLTTLSWQLFQTLRLFDLRLERNPFQCSCDIRWIQLWQEKGEANLQSQQLHCMNLDTAVILLRNMNITQCDLPEISVSHVNLTVREGENAVITCQGSGSPLPDVDWTVADLHSINTHQTNLQWTNVHAIQLTLVNVTSEDNGFLLTCIAENVVGMSQASVLLTVY
modifications: biotin on the Avitag (enzymatic)
notes: chicken TrkC LRRIg1, amino acids 32–302 of NCBI NM_205169.1, residues 63–77 re-added to LRRIg1cryst; not shown: Avitag (BirA recognition site), C-terminal, kept
Chicken RPTPσ Ig1–3
  Kd: 216 nM

B10: chicken TrkC LRRIg1 2Q, C-terminal Avitag, immobilized (domain or fragment, UniProt Q91044 32-302, looked up)
chain: B9 chain with N37Q, N41Q
modifications: biotin on the Avitag (enzymatic)
notes: chicken TrkC LRRIg1, amino acids 32–302 of NCBI NM_205169.1, residues 63–77 re-added with N68Q+N72Q; not shown: Avitag (BirA recognition site), C-terminal, kept
Chicken RPTPσ Ig1–3
  Kd: 38 nM
